Biological target: dimeric human Tie2 extracellular domain (ECD)-human IgG fusion protein (UniProt Q02763)
Sequence (Q02763 23-748): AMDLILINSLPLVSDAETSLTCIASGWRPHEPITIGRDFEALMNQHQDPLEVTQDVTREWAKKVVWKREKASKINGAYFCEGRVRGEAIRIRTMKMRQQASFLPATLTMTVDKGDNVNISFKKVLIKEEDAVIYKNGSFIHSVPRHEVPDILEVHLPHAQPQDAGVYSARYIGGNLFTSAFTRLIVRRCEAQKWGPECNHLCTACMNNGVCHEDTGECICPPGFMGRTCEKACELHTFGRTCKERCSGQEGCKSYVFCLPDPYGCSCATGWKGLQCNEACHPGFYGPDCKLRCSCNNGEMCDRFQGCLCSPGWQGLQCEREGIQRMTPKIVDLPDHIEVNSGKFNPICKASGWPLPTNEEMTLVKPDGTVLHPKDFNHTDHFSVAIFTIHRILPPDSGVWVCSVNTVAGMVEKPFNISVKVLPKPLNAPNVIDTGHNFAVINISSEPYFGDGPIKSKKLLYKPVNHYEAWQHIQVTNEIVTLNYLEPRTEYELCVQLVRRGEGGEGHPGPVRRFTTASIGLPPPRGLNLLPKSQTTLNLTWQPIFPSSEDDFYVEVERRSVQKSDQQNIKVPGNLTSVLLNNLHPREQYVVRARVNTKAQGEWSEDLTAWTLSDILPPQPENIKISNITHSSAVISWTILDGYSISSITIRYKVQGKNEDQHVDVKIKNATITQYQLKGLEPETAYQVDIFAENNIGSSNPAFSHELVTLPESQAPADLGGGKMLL

Substance: Recombinant human MMP-14
- cleavage of hTie2-ECD (reducing SDS-PAGE, 30° C., 16 hours): co-incubation of MMP-14 and human Tie2 resulted in significant reduction of intact hTie2-ECD, with the appearance of shorter, cleaved fragments
